Here are results for one substance from US20060070134.

The target of this data set is Human E1 (ubiquitin-activating enzyme) (UniProt P22314).
Chain of UniProt P22314 (P22314 whole entry): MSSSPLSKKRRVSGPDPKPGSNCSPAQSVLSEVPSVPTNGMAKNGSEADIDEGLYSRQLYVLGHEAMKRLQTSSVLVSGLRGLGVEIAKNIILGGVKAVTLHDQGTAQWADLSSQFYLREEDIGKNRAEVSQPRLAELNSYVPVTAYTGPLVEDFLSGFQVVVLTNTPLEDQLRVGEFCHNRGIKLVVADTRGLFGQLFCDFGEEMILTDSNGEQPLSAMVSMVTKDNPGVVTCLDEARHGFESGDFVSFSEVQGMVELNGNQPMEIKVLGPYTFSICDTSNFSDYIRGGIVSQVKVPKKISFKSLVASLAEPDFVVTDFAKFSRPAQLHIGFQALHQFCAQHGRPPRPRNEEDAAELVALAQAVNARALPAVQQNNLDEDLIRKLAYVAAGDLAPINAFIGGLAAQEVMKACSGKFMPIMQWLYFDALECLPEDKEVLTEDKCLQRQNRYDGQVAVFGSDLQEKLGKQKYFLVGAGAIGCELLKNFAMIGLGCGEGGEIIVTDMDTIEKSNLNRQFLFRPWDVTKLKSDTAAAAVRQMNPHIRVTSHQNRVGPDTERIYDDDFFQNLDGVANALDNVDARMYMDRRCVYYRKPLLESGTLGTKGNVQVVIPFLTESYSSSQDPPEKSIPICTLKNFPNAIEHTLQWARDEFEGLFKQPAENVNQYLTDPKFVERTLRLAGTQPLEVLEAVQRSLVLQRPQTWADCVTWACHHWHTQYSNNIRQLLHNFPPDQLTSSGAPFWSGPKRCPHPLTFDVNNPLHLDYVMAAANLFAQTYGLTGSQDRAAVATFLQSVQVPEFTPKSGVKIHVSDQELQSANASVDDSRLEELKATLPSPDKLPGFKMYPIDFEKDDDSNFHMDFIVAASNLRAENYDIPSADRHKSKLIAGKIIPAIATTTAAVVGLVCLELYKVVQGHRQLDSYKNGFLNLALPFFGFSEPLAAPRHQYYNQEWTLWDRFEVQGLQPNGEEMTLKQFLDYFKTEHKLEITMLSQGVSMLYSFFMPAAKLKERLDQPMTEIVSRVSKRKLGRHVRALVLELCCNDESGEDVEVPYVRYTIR

On to FLJ11011v2, for which the “ubiquitinylation reaction, anti-Ub western blot” value is “FLJ11011v2 is efficiently ubiquitinylated in this assay”.
